Measurements taken from patent CN113583127A (MABWELL SHANGHAI BIOTECHNOLOGY CO LTD, dated 2021).
Substitutions are numbered along the chain they refer to.

Legend:
[1] = target: mFc-NKG2A-CD94重组蛋白 (human) (UniProt P26715); experiment: BLI (Octet QKe), antibody captured on AHC probe, mFc-NKG2A-CD94 as analyte, 1:1 fit
PD-L1-ECD-mFc = PD-L1-ECD-mFc (UniProt Q9NZQ7); experiment: competition ELISA: PD-1-hFc coated, 3 nM PD-L1-ECD-mFc with titrated antibody, detection with HRP anti-mouse Fc
[2] = target: T1, 人NKG2A/CD94 (Flp-in CHO稳定表达细胞株表面) (human, UniProt P26715 1-233; Q13241 1-179); experiment: flow cytometry, Fab titrated on CHO cells expressing human NKG2A/CD94; column head KD[nM], title and text call it EC50
T1 construct: whole, on cells; also called 细胞表面人NKG2A/CD94; huNKGA/huCD94
T1 sequence (P26715 whole entry, chain 1 of 2): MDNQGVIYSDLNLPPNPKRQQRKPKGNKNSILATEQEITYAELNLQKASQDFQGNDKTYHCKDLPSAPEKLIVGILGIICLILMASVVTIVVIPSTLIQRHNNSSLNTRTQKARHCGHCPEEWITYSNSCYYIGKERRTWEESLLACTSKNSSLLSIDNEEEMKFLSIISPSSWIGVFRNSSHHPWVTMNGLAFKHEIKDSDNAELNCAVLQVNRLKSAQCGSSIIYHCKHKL
T1 sequence (Q13241 whole entry, chain 2 of 2): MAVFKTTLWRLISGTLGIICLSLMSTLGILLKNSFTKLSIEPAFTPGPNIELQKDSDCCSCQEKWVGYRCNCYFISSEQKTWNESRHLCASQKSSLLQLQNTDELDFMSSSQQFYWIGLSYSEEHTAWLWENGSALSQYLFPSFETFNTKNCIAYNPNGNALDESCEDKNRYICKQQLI

UniProt Q9NZQ7, sequence (Q9NZQ7 19-239): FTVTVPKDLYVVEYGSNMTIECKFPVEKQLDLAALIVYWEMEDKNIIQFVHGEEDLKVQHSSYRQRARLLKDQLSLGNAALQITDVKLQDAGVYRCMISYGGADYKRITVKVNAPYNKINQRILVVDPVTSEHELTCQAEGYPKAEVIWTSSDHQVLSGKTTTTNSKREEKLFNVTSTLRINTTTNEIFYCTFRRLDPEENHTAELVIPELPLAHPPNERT

B1: hum270重组抗体 (antibody, V domains shown)
VH: EVQLVQSGAEVKKPGASVKVSCKASGYTFTSYWMNWVRQAPGQGLEWMGRIDPYDSETHYAQKLQGRVTMTTDTSTSTAYMELRSLRSDDTAVYYCARGGYDFDVGTLYWFFDVWGQGTTVTVSS
VL: DIQMTQSPSSLSASVGDRVTITCRASENIYSYLAWYQQKPGKAPKLLIYNAKTLAEGVPSRFSGSGSGTDFTLTISSLQPEDFATYYCQHHYGTPRTFGGGTKVEIK
Kd [1]: 0.408 nM
koff [1]: 0.000196 s⁻¹
kon [1]: 481000 M⁻¹ s⁻¹

B2: 抗NKG2A和抗PD-L1双特异性抗体hum270-F2 (bispecific antibody, part only; not given: Anti-PD-L1 nanobody F2, linker, constant regions, IgG4, not shown: a dimerising Fc or GST)
heavy, part: B1 VH
light, part: B1 VL
IC50 (PD-L1-ECD-mFc): 2.86 nM

B3: AM00 Fab (Fab, V domains shown)
VH: B1 VH
VL: B1 VL
notes: also called 亲本抗体AM00; 模板抗体Fab
Kd [2]: 189 nM

B4: AM10 Fab (Fab, V domains shown)
VH: B1 VH with G26S, T28D, T30S, S31W, M34I
VL: B1 VL
Kd [2]: 1.43 nM
